Results published in the supplement of paper PMC10598134.
± gives the standard deviation.

Test: collision cross section of modified peptide (TIMS, N2, iRT-aligned); higher = larger / more extended gas-phase ion
Procedure: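 1/K0 was aligned run-wise to spiked iRT peptides and converted to CCS in N2 (Mason-Schamp). Values are the mean of 1-3 technical replicates for the most abundant feature at each charge state.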

[1] = charge state: 2, modification: Succinyl
[2] = charge state: 3, modification: Succinyl
[3] = charge state: 2, modification: Phospho (Y)
[4] = charge state: 2, modification: Methyl (K)
[5] = charge state: 3, modification: Methyl (K)
[6] = charge state: 2, modification: Butyryl
[7] = charge state: 2, modification: Formyl
[8] = charge state: 3, modification: Formyl
[9] = charge state: 2, modification: Glutarylation
[10] = charge state: 3, modification: Glutarylation
[11] = charge state: 3, modification: Hydroxyproline
[12] = charge state: 2, modification: Methyl (R)
[13] = charge state: 3, modification: Methyl (R)
[14] = charge state: 2, modification: Citrullination (R)
[15] = charge state: 3, modification: Citrullination (R)
[16] = charge state: 2, modification: Nitro (Y)
[17] = charge state: 2, modification: Malonyl
[18] = charge state: 3, modification: Nitro (Y)
[19] = charge state: 2, modification: Biotin
[20] = charge state: 3, modification: Biotin
[21] = charge state: 3, modification: Trimethyl (K)
[22] = charge state: 2, modification: hydroxyisobutyryl
[23] = charge state: 3, modification: Dimethyl (K)
[24] = charge state: 2, modification: Hydroxyproline
[25] = charge state: 2, modification: GlyGly (K)
[26] = charge state: 3, modification: GlyGly (K)

ISSNFSSIIAEKLR [_ISSNFSSIIAEK(Crotonyl)LR_]
collision cross section (charge state: 2, modification: Crotonyl): 435.72 Å²

VFIGNLNTLVVKK [_VFIGNLNTLVVK(Succinyl)K_]
collision cross section [1]: 423.07 ± 0.53 Å² | collision cross section [2]: 489.97 ± 1.6 Å²

CQGGQETQEYR [_CQGGQETQEY(Phospho (Y))R_]
collision cross section [3]: 381.17 Å²

TVSKVDDFLANEAK [_TVSK(Methyl (K))VDDFLANEAK_]
collision cross section [4]: 413.26 ± 1.6 Å² | collision cross section [5]: 471.08 ± 3.6 Å²

GGPGSTLSFVGKR [_GGPGSTLSFVGK(Butyryl)R_]
collision cross section [6]: 388.34 ± 1.3 Å² | collision cross section (charge state: 3, modification: Butyryl): 432.12 ± 3.2 Å²

VPQAQPTKPALK [_VPQAQPT(HexNAc (ST))KPALK_]
collision cross section (charge state: 2, modification: HexNAc (ST)): 409.35 ± 0.62 Å² | collision cross section (charge state: 3, modification: HexNAc (ST)): 481.8 ± 0.17 Å²

VTLEVGKVIQQGR [_VTLEVGK(Formyl)VIQQGR_]
collision cross section [7]: 402.06 ± 2.7 Å² | collision cross section [8]: 475.94 ± 2.1 Å²

GADFLVTEVENGGSLGSKK [_GADFLVTEVENGGSLGSK(Acetyl (K))K_]
collision cross section (charge state: 2, modification: Acetyl (K)): 465.51 Å² | collision cross section (charge state: 3, modification: Acetyl (K)): 541.97 Å²

LEQVEKELLR [_LEQVEK(Succinyl)ELLR_]
collision cross section [1]: 384.25 ± 0.76 Å²

SSGPGGQNVNKVNSK [_SSGPGGQNVNK(Gluratylation)VNSK_]
collision cross section [9]: 409.46 ± 0.95 Å² | collision cross section [10]: 446.64 ± 1.9 Å²

IISSIEQKEENK [_IISSIEQK(Propionyl)EENK_]
collision cross section (charge state: 2, modification: Propionyl): 403.07 ± 0.65 Å²

GDAGEPGRPGSPGK [_GDAGEP(Hydroxyproline)GRPGSPGK_]
collision cross section [11]: 446.53 ± 1.3 Å²

ISSNFSSIIAEKLR [_ISSNFSSIIAEK(Butyryl)LR_]
collision cross section [6]: 436.86 ± 0.55 Å²

RLPNVHGR [_R(Methyl (R))LPNVHGR_]
collision cross section [12]: 332.28 ± 1.8 Å² | collision cross section [13]: 421.48 ± 3.9 Å²

GIGRGTVQALHATGAR [_GIGR(Citrullination (R))GTVQALHATGAR_]
collision cross section [14]: 453.22 ± 0.95 Å² | collision cross section [15]: 491.89 ± 1.9 Å²

LELAQYR [_LELAQY(Phospho (Y))R_]
collision cross section [3]: 329.12 ± 0.75 Å²

LLEEEDSKLK [_LLEEEDSK(Methyl (K))LK_]
collision cross section [4]: 382.93 ± 0.7 Å² | collision cross section [5]: 439.97 ± 5.9 Å²

VSPASSVDSNIPSSQGYKK [_VSPASSVDSNIPSSQGYK(Formyl)K_]
collision cross section [7]: 457.96 ± 0.14 Å² | collision cross section [8]: 550.3 ± 3 Å²

LSSETYSQAK [_LSSETY(Nitro (Y))SQAK_]
collision cross section [16]: 352.74 ± 0.47 Å²

LEQVEKELLR [_LEQVEK(Methyl (K))ELLR_]
collision cross section [4]: 386.67 ± 0.96 Å² | collision cross section [5]: 448.53 ± 4.9 Å²

FLQEFYQDDELGKK [_FLQEFYQDDELGK(Malonyl)K_]
collision cross section [17]: 451.48 ± 0.99 Å²

VFIGNLNTLVVKK [_VFIGNLNTLVVK(Gluratylation)K_]
collision cross section [9]: 424.62 ± 0.97 Å² | collision cross section [10]: 495.12 ± 1.7 Å²

ANEKTESSSAQQVAVSR [_ANEK(Malonyl)TESSSAQQVAVSR_]
collision cross section [17]: 438.58 ± 1 Å² | collision cross section (charge state: 3, modification: Malonyl): 534.15 ± 1.9 Å²

GTVPDDAVEALADSLGKK [_GTVPDDAVEALADSLGK(Methyl (K))K_]
collision cross section [4]: 482.51 ± 3.5 Å² | collision cross section [5]: 524.02 ± 2.6 Å²

HHAAYVNNLNVTEEK [_HHAAY(Nitro (Y))VNNLNVTEEK_]
collision cross section [16]: 438.46 Å² | collision cross section [18]: 499.02 ± 3.6 Å²

LAEEENKAK [_LAEEENK(Malonyl)AK_]
collision cross section [17]: 346.72 ± 0.74 Å²

IVSGKDYNVTANSK [_IVSGK(Biotin)DYNVTANSK_]
collision cross section [19]: 432.72 ± 2.7 Å² | collision cross section [20]: 508.73 Å²

FRSGNYR [_FR(Methyl (R))SGNYR_]
collision cross section [12]: 333.09 ± 1 Å² | collision cross section [13]: 399.51 ± 0.82 Å²

VIVGGSSEYK [_VIVGGSSEY(Phospho (Y))K_]
collision cross section [3]: 358.71 ± 0.065 Å²

VDIDVPDVNIEGPDAKLK [_VDIDVPDVNIEGPDAK(Trimethyl (K))LK_]
collision cross section (charge state: 2, modification: Trimethyl (K)): 470.5 Å² | collision cross section [21]: 538.87 ± 1.8 Å²

TLDEILQEKK [_TLDEILQEK(Malonyl)K_]
collision cross section [17]: 380.87 ± 4.1 Å²

ITGKNQVTATK [_ITGK(hydroxyisobutyryl)NQVTATK_]
collision cross section [22]: 372.92 ± 1.4 Å²

IVEKYGYTHLSAGELLR [_IVEK(Dimethyl (K))YGYTHLSAGELLR_]
collision cross section [23]: 550.8 Å²

SFEDIHQYR [_SFEDIHQY(Nitro (Y))R_]
collision cross section [16]: 368.15 ± 0.17 Å² | collision cross section [18]: 453.82 ± 1.2 Å²

DLEEAEEYK [_DLEEAEEY(Nitro (Y))K_]
collision cross section [16]: 368.75 ± 2.1 Å²

VNIGQGSHPQKVK [_VNIGQGSHPQK(Methyl (K))VK_]
collision cross section [4]: 409.02 ± 0.54 Å² | collision cross section [5]: 465.41 ± 17 Å²

LGNDFHTNKR [_LGNDFHTNK(Dimethyl (K))R_]
collision cross section (charge state: 2, modification: Dimethyl (K)): 366.02 ± 0.57 Å² | collision cross section [23]: 412.91 ± 1.1 Å²

GHPGPPGPPGEQGLPGLAGK [_GHPGPPGPP(Hydroxyproline)GEQGLPGLAGK_]
collision cross section [24]: 440.72 ± 0.83 Å² | collision cross section [11]: 495.73 ± 18 Å²

PGGEGPQCEKTTDVK [_PGGEGPQCEK(Malonyl)TTDVK_]
collision cross section [17]: 427.2 Å²

PSVGSQSNQAGQGKR [_PSVGSQSNQAGQGK(Trimethyl (K))R_]
collision cross section [21]: 463.16 ± 1.5 Å²

GDQGEPGPSGNPGK [_GDQGEPGPSGNP(Hydroxyproline)GK_]
collision cross section [24]: 343.56 ± 0.79 Å²

LEENHYNTYISK [_LEENHYNTY(Phospho (Y))ISK_]
collision cross section [3]: 422.15 ± 0.06 Å² | collision cross section (charge state: 3, modification: Phospho (Y)): 477.33 ± 1 Å²

LEKTIDDLEEK [_LEK(GlyGly (K))TIDDLEEK_]
collision cross section [25]: 403.14 ± 0.36 Å² | collision cross section [26]: 473.69 ± 1.1 Å²

GTITVSAQELKDNR [_GTITVSAQELK(Succinyl)DNR_]
collision cross section [1]: 421.79 ± 0.53 Å² | collision cross section [2]: 480.4 ± 2.5 Å²

SPSDSGYSYETIGKTTK [_SPSDSGYSYETIGK(hydroxyisobutyryl)TTK_]
collision cross section [22]: 457.69 ± 0.57 Å² | collision cross section (charge state: 3, modification: hydroxyisobutyryl): 538.76 ± 2.8 Å²

TTEETSKPK [_TTEETSK(Biotin)PK_]
collision cross section [19]: 372.34 Å²

IQQELQTAKK [_IQQELQTAK(GlyGly (K))K_]
collision cross section [25]: 381.49 ± 0.89 Å² | collision cross section [26]: 434.95 ± 2 Å²

HELQANCYEEVKDR [_HELQANCYEEVK(Biotin)DR_]
collision cross section [20]: 512.53 ± 1.6 Å²

LLIVSTTPYSEKDTK [_LLIVSTTPYSEK(Methyl (K))DTK_]
collision cross section [4]: 465.27 ± 2.3 Å² | collision cross section [5]: 508.6 ± 2 Å²

ANLEKAQAELVGTADEATR [_ANLEK(Gluratylation)AQAELVGTADEATR_]
collision cross section [9]: 478.84 ± 1.4 Å² | collision cross section [10]: 584.83 ± 0.77 Å²

GADFLVTEVENGGSLGSKK [_GADFLVTEVENGGSLGSK(Methyl (K))K_]
collision cross section [4]: 494.56 Å² | collision cross section [5]: 538.26 Å²

DLSTVEALQNLKNLK [_DLSTVEALQNLK(Malonyl)NLK_]
collision cross section [17]: 481.83 ± 1.5 Å²

VYVGNLGTGAGK [_VY(Nitro (Y))VGNLGTGAGK_]
collision cross section [16]: 354.85 ± 1.5 Å²

LVLPSQAQARLPSGEVVK [_LVLPSQAQAR(Citrullination (R))LPSGEVVK_]
collision cross section [14]: 464.28 ± 0.94 Å² | collision cross section [15]: 522.33 ± 4.3 Å²
